In PMC10967385, “Essential role of obscurin kinase-1 in cardiomyocyte coupling via N-cadherin phosphorylation” (JCI Insight, 2024):
Substitutions are numbered along the chain they refer to. Each block holds one binder with its values, some of them ahead of it.

Target: T1, MBP-p120-catenin(311-747), middle portion of p120-catenin containing armadillo domains 1-8 fused to maltose … (UniProt P30999 311-747)
T1 construct: p120-catenin, middle portion containing armadillo domains 1-8, aa 311-747; source: recombinant protein (source in Supplemental Methods)
T1 sequence (looked up): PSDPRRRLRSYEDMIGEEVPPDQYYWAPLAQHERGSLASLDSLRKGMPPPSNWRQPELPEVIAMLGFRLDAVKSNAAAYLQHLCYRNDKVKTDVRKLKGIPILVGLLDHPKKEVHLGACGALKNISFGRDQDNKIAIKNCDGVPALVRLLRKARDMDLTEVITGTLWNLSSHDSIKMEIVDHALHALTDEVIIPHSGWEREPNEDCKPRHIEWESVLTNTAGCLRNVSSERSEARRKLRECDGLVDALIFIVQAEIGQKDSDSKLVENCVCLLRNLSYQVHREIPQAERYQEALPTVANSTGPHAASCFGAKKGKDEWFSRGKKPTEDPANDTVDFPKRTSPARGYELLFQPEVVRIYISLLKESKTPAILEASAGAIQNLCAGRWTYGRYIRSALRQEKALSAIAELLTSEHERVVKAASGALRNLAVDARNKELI
Assay: ITC; VP-ITC, 37°C, PBS pH 7.4; GST-Ncad ligands (80-100 μM) titrated into 10 μM MBP-p120-catenin(311-747) in the sample chamber; control titrations subtracted; 1-site binding model; average of 3 replicates; number of sites fixed to 1 for the SE ligand
Conditions: both partners purified

Kd: 1.25 µM
B1: GST-Ncad(746-906)-WT, recombinant GST-tagged cytoplasmic domain of N-cadherin (domain or fragment, mouse, UniProt P15116 746-906, looked up)
chain: MKRRDKERQAKQLLIDPEDDVRDNILKYDEEGGGEEDQDYDLSQLQQPDTVEPDAIKPVGIRRLDERPIHAEPQYPVRSAAPHPGDIGDFINEGLKAADNDPTAPPYDSLLVFDYEGSGSTAGSLSSLNSSSSGGDQDYDYLNDWGPRFKKLADMYGGGDD
notes: source: recombinant protein (source in Supplemental Methods)

Kd: 197 µM
B2: GST-Ncad(746-906)-SE, phosphomimic Ser-788-Glu GST-tagged cytoplasmic domain of N-cadherin (domain or fragment, mouse, UniProt P15116 746-906, looked up)
chain: B1 chain with S43E
notes: as for B1
